Laboratory results from the supplement of paper PMC9112550, “Optimization of the antimicrobial peptide Bac7 by deep mutational scanning” (BMC Biology, 2022).

Tested on: Escherichia coli TOP10
Assay: shrunken log2 fold change of peptide-encoding DNA abundance (4.5 h post-induction vs induction); higher = less antimicrobial activity (less host growth inhibition)
Conditions: time post-induction: 4.5 h; library: site-saturation at positions 5, 18, 19, 20
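Note: peptides expressed intracellularly from a pBAD plasmid library in pooled LB shake-flask culture, induced with 0.3% L-arabinose, DNA abundance read by NGS, three biological replicates, DESeq2 with apeglm shrinkage.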

RRIRIRPPRLPRPRPRPHKQPRP
shrunken log2 fold change: -0.0164

RRIRIRPPRLPRPRPRPHLDPRP
shrunken log2 fold change: 0.178

RRIRIRPPRLPRPRPRPHMQPRP
shrunken log2 fold change: -0.169

RRIRIRPPRLPRPRPRPHNMPRP
shrunken log2 fold change: -0.898

RRIRIRPPRLPRPRPRPHNNPRP
shrunken log2 fold change: -0.313

RRIRIRPPRLPRPRPRPHRFPRP
shrunken log2 fold change: -0.62

RRIRIRPPRLPRPRPRPHTDPRP
shrunken log2 fold change: -0.777

RRIRIRPPRLPRPRPRPHVCPRP
shrunken log2 fold change: 0.41

RRIRIRPPRLPRPRPRPHVKPRP
shrunken log2 fold change: -0.213

RRIRIRPPRLPRPRPRPHVVPRP
shrunken log2 fold change: -0.0217

RRIRIRPPRLPRPRPRPHWNPRP
shrunken log2 fold change: -0.758

RRIRIRPPRLPRPRPRPHWQPRP
shrunken log2 fold change: 1.4

RRIRIRPPRLPRPRPRPHYTPRP
shrunken log2 fold change: -0.591

RRIRIRPPRLPRPRPRPIAEPRP
shrunken log2 fold change: -0.22

RRIRIRPPRLPRPRPRPIAQPRP
shrunken log2 fold change: -0.373

RRIRIRPPRLPRPRPRPICPPRP
shrunken log2 fold change: 0.0188

RRIRIRPPRLPRPRPRPICTPRP
shrunken log2 fold change: -0.458

RRIRIRPPRLPRPRPRPIDYPRP
shrunken log2 fold change: -1.06

RRIRIRPPRLPRPRPRPIGGPRP
shrunken log2 fold change: -0.0686

RRIRIRPPRLPRPRPRPIGWPRP
shrunken log2 fold change: 0.0224

RRIRIRPPRLPRPRPRPIIWPRP
shrunken log2 fold change: -0.167

RRIRIRPPRLPRPRPRPIKDPRP
shrunken log2 fold change: -0.467

RRIRIRPPRLPRPRPRPIKRPRP
shrunken log2 fold change: -0.0331

RRIRIRPPRLPRPRPRPILAPRP
shrunken log2 fold change: -0.286

RRIRIRPPRLPRPRPRPILCPRP
shrunken log2 fold change: -0.0872

RRIRIRPPRLPRPRPRPIQCPRP
shrunken log2 fold change: 0.0629

RRIRIRPPRLPRPRPRPIQKPRP
shrunken log2 fold change: 0.00853

RRIRIRPPRLPRPRPRPIRRPRP
shrunken log2 fold change: 0.00942

RRIRIRPPRLPRPRPRPISFPRP
shrunken log2 fold change: 0.00109

RRIRIRPPRLPRPRPRPISLPRP
shrunken log2 fold change: -0.129

RRIRIRPPRLPRPRPRPIVEPRP
shrunken log2 fold change: 0.0786

RRIRIRPPRLPRPRPRPIYTPRP
shrunken log2 fold change: -0.728

RRIRIRPPRLPRPRPRPKAIPRP
shrunken log2 fold change: -0.157

RRIRIRPPRLPRPRPRPKDMPRP
shrunken log2 fold change: -0.221

RRIRIRPPRLPRPRPRPKDVPRP
shrunken log2 fold change: -0.141

RRIRIRPPRLPRPRPRPKFQPRP
shrunken log2 fold change: -0.327

RRIRIRPPRLPRPRPRPKGSPRP
shrunken log2 fold change: 0.00745

RRIRIRPPRLPRPRPRPKHNPRP
shrunken log2 fold change: -0.349

RRIRIRPPRLPRPRPRPKHSPRP
shrunken log2 fold change: -0.447

RRIRIRPPRLPRPRPRPKICPRP
shrunken log2 fold change: -0.883

RRIRIRPPRLPRPRPRPKINPRP
shrunken log2 fold change: -0.881

RRIRIRPPRLPRPRPRPKLCPRP
shrunken log2 fold change: 0.0563

RRIRIRPPRLPRPRPRPKLNPRP
shrunken log2 fold change: 0.0573

RRIRIRPPRLPRPRPRPKMQPRP
shrunken log2 fold change: -0.293

RRIRIRPPRLPRPRPRPKNGPRP
shrunken log2 fold change: -0.202

RRIRIRPPRLPRPRPRPKPNPRP
shrunken log2 fold change: -0.105

RRIRIRPPRLPRPRPRPKQGPRP
shrunken log2 fold change: 0.391

RRIRIRPPRLPRPRPRPKQVPRP
shrunken log2 fold change: -0.118

RRIRIRPPRLPRPRPRPKRIPRP
shrunken log2 fold change: 0.0468

RRIRIRPPRLPRPRPRPKSFPRP
shrunken log2 fold change: 0.0398

RRIRIRPPRLPRPRPRPKSRPRP
shrunken log2 fold change: -0.108

RRIRIRPPRLPRPRPRPKSSPRP
shrunken log2 fold change: -0.143

RRIRIRPPRLPRPRPRPKTGPRP
shrunken log2 fold change: -0.388

RRIRIRPPRLPRPRPRPKTWPRP
shrunken log2 fold change: -0.258

RRIRIRPPRLPRPRPRPKVLPRP
shrunken log2 fold change: -0.0165

RRIRIRPPRLPRPRPRPKWGPRP
shrunken log2 fold change: -0.00761

RRIRIRPPRLPRPRPRPKWPPRP
shrunken log2 fold change: 0.0341

RRIRIRPPRLPRPRPRPKWQPRP
shrunken log2 fold change: -0.114

RRIRIRPPRLPRPRPRPKYKPRP
shrunken log2 fold change: -0.775

RRIRIRPPRLPRPRPRPKYLPRP
shrunken log2 fold change: -0.437

RRIRIRPPRLPRPRPRPKYMPRP
shrunken log2 fold change: -0.566

RRIRIRPPRLPRPRPRPLACPRP
shrunken log2 fold change: -0.398

RRIRIRPPRLPRPRPRPLCFPRP
shrunken log2 fold change: -0.485

RRIRIRPPRLPRPRPRPLDKPRP
shrunken log2 fold change: -0.141

RRIRIRPPRLPRPRPRPLDVPRP
shrunken log2 fold change: -0.0639

RRIRIRPPRLPRPRPRPLGEPRP
shrunken log2 fold change: -0.277

RRIRIRPPRLPRPRPRPLGLPRP
shrunken log2 fold change: -0.177

RRIRIRPPRLPRPRPRPLHCPRP
shrunken log2 fold change: -1.13

RRIRIRPPRLPRPRPRPLHPPRP
shrunken log2 fold change: -0.0764

RRIRIRPPRLPRPRPRPLHQPRP
shrunken log2 fold change: -0.121

RRIRIRPPRLPRPRPRPLKAPRP
shrunken log2 fold change: -0.02

RRIRIRPPRLPRPRPRPLKQPRP
shrunken log2 fold change: 0.0465

RRIRIRPPRLPRPRPRPLMLPRP
shrunken log2 fold change: -0.704

RRIRIRPPRLPRPRPRPLNKPRP
shrunken log2 fold change: -0.398

RRIRIRPPRLPRPRPRPLNSPRP
shrunken log2 fold change: -0.652
